Test results reported in FireProtDB (doi:10.1021/bi00025a018).

Conditions: Escherichia coli (strain K12), Thermal, CD, NaCl 0.1 M, reversible: yes, whole UniProt chain shown

B1: Ribonuclease HI wild type, P0A7Y4 (protein)
chain: MLKQVEIFTDGSCLGNPGPGGYGAILRYRGREKTFSAGYTRTTNNRMELMAAIVALEALKEHCEVILSTDSQYVRQGITQWIHNWKKRGWKTADKKPVKNVDLWQRLDAALGQHQIKWEWVKGHAGHPENERCDELARAAAMNPTLEDTGYQVEV
Q: With B1 as the protein, how does the Tm (pH 3, glycine-HCl 10 mM) read?
A: Its Tm is 50.9 °C.

Q: What about the “unfolding enthalpy (van 't Hoff)” value (pH 3, glycine-HCl 10 mM) of the same protein?
A: Its value is 106 kcal/mol.

Q: And the Tm (pH 5.5, Sodium acetate 10 mM)?
A: The Tm was 52.5 °C.

Q: And the “unfolding enthalpy (van 't Hoff)” value (pH 5.5, Sodium acetate 10 mM)?
A: The value was 81.8 kcal/mol.
